This note sets out measurements from paper PMC5421877, “SOCS3 inhibits the pathological effects of IL-22 in non-melanoma skin tumor-derived keratinocytes” (Oncotarget, 2017).

What all share (type): cell-based, human
The subject of experiment [1] is Erk1/2 phosphorylation in healthy keratinocytes. The experiment is described as follows: Western blot of Erk1/2 phosphorylation in healthy keratinocytes (IL-22). Conditions: IL-22 time course, no peptide, n = 3. As for the experimental part:
(§1) Figure 5 KIR-ESS peptide inhibits IL-22-induced phosphorylation of STAT3 and Erk in healthy and SCC-derived keratinocytes (A) Protein extracts obtained from healthy keratinocytes (n = 3) pre-treated or not with 15 μM (left panel) or 75 μM (right panel), KIR, KIR-ESS and control (Ctrl1 or Ctrl2) peptides, and, then, […], were subjected to WB analysis to detect STAT3 (Tyr705), Erk and MEK phosphorylation. Filters were probed with anti-STAT3, -Erk and –MEK Abs (top). (B) Protein extracts obtained from healthy keratinocytes (n = 3) pre-treated or not with 75 μM KIR-ESS and control (Ctrl1) peptides, and, then, stimulated or not with IL-22 for 10 min, were subjected to immunoprecipitation for IL-22R1 and Jak1, and then analysed by WB to detect phosphorylated and unphosphorylated forms of the proteins. (C) Unphosphorylated and phosphorylated forms of STAT1 (Tyr701) and STAT3 (Tyr705) were monitored in keratinocytes treated with IFN-γ for 15 min by WB analysis (bottom). In all experimental groups, filters were stripped and re-probed with β-actin Ab. (D) Protein extracts were obtained from CAL27 (left panel) or CAL33 (right panel) lines treated or not with 75 μM peptides in presence of IL-22 or IFN-γ. WB was performed to detect basal and phosphorylated STAT1, STAT3 and Erk. D.I. ratio indicates the densitometric intensity of phosphorylated/unphosphorylated target protein. […]
On the technique in general: Immunoblotting shows a protein as a band on a membrane.

In experiment [2] the test system is STAT3 phosphorylation in healthy keratinocytes. The experiment in a line: Western blot of STAT3 phosphorylation in healthy keratinocytes (IL-22). Conditions: IL-22 time course, no peptide, n = 3. The method, then:
as §1

Experiment [3] concerns IL-22R1 phosphorylation. The experiment in a line: IP/WB of IL-22R1 phosphorylation in healthy keratinocytes (IL-22). Conditions: IL-22 10 min, no peptide, n = 3. As for the experimental part:
(§2) Figure 5 KIR-ESS peptide inhibits IL-22-induced phosphorylation of STAT3 and Erk in healthy and SCC-derived keratinocytes (A) Protein extracts obtained from healthy keratinocytes (n = 3) pre-treated or not with 15 μM (left panel) or 75 μM (right panel), KIR, KIR-ESS and control (Ctrl1 or Ctrl2) peptides, and, then, stimulated or not with IL-22 for 20 min, were subjected to WB analysis to detect STAT3 (Tyr705), Erk and MEK phosphorylation. Filters were probed with anti-STAT3, -Erk and –MEK Abs (top). (B) Protein extracts obtained from healthy keratinocytes (n = 3) pre-treated or not with 75 μM KIR-ESS and control (Ctrl1) peptides, and, then, stimulated or not with IL-22 for 10 min, were subjected to immunoprecipitation for IL-22R1 and Jak1, and then analysed by WB to detect phosphorylated and unphosphorylated forms of the proteins. (C) Unphosphorylated and phosphorylated forms of STAT1 (Tyr701) and STAT3 (Tyr705) were monitored in keratinocytes treated with IFN-γ for 15 min by WB analysis (bottom). In all experimental groups, filters were stripped and re-probed with β-actin Ab. (D) Protein extracts were obtained from CAL27 (left panel) or CAL33 (right panel) lines treated or not with 75 μM peptides in presence of IL-22 or IFN-γ. WB was performed to detect basal and phosphorylated STAT1, STAT3 and Erk. […]

The subject of experiment [4] is Jak1 phosphorylation. The experiment in a line: IP/WB of Jak1 phosphorylation in healthy keratinocytes (IL-22). Conditions: IL-22 10 min, no peptide, n = 3. The method, then:
as §2

B1: IL-22: cytokine stimulus, R&D Systems (protein, UniProt Q9GZX6 34-179, looked up)
Interleukin-22: APISSHCRLDKSNFQQPYITNRTFMLAKEASLADNNTDVRLIGEKLFHGVSMSERCYLMKQVLNFTLEEVLFPQSDRFQPYMQEVVPFLARLSNRLSTCHIEGDDLHIQRNVQKLKDTVKKLGESGEIKAIGELDLLFMSLRNACI
For B1, the Erk1/2 activation result in experiment [1] is “culminated with STAT3, MEK1/2 and Erk1/2 activation”. In experiment [2], the STAT3 activation entry was “culminated with STAT3, MEK1/2 and Erk1/2 activation”. For the same molecule, the IL-22R1 phosphorylation induced result in experiment [3] was “induced molecular cascade implicating phosphorylation of IL-22R1, Tyk2 and Jak1”. In experiment [4], the Jak1 phosphorylation induced entry was “induced molecular cascade implicating phosphorylation of IL-22R1, Tyk2 and Jak1”.
